In paper PMC3096012:
Numbering of substitutions follows the chain as printed. Names may count otherwise.

Tests used:
Assay in all cases: SEC
[1] = target: GltPh-A V355C-S279C, unlabeled (Pyrococcus Horikoshi), O59010
[2] = target: GltPh-A V355C-P129C, unlabeled (Pyrococcus Horikoshi), O59010
[3] = target: GltPh-A A353C-L130C, unlabeled (Pyrococcus Horikoshi), O59010

B1: GltPh-A V355C-S279C, unlabeled, O59010 1-425 (natural protein)
chain: MGLYRKYIEYPVLQKILIGLILGAIVGLILGHYGYAHAVHTYVKPFGDLFVRLLKMLVMPIVFASLVVGAASISPARLGRVGVKIVVYYLLTSAFAVTLGIIMARLFNPGAGIHLAVGGQQFQPHQAPPLVHILLDIVPTNPFGALANGQVLPTIFFAIILGIAITYLMNSENEKVRKSAETLLDAINGLAEAMYKIVNGVMQYAPIGVFALIAYVMAEQGVHVVGELAKVTAAVYVGLTLQILLVYFVLLKIYGIDPISFIKHAKDAMLTAFVTRSSCGTLPVTMRVAKEMGISEGIYSFTLPLGATINMDGTALYQGVATFFIANALGSHLTVGQQLTIVLTAVLASIGTAGCPGAGAIMLAMVLHSVGLPLTDPNVAAAYAMILGIDAILDMGRTMVNVTGDLTGTAIVAKTEGTLVPR
modifications: not checked
A stoichiometry N [1] of 3 was found for B1 in this work.

B2: GltPh-A V355C-P129C, unlabeled, O59010 1-425 (natural protein)
chain: B1 chain with P129C, C279S
modifications: not checked
A stoichiometry N [2] of 3 was found for B2 in this work.

B3: GltPh-A A353C-L130C, unlabeled, O59010 1-425 (natural protein)
chain: B1 chain with L130C, C279S, A353C, C355V
modifications: not checked
A stoichiometry N [3] of 3 was found for B3 in this work.
